Values joined by “and” are separate entries in the source; they are usually repeats but may differ in a detail not shown here. Equal entries are not always repeated.
Substrate: CCCC[C@H](NC(=O)[C@H](CCCCNC(C)=O)NC(=O)[C@H](CO)NC(=O)[C@H](Cc1c[nH]cn1)NC(=O)[C@H](CO)NC(=O)[C@H](CO)NC(=O)[C@@H](NC(=O)[C@H](CO)NC(=O)[C@H](CCC(N)=O)NC(=O)CNC(=O)[C@H](CCCCNC(=O)CCCC[C@@H]1SC[C@@H]2NC(=O)N[C@@H]21)NC(=O)[C@H](CCC(=O)O)NC(=O)[C@H](CCC(=O)O)NC(C)=O)[C@@H](C)O)C(=O)N[C@@H](CO)C(=O)N[C@H](C(=O)N[C@@H](CCC(=O)O)C(=O)NCC(=O)N[C@@H](CCCCNC(=O)c1ccc2c(c1)C(=O)OC21c2ccc(N(C)C)cc2Oc2cc(N(C)C)ccc21)C(=O)N[C@@H](CCC(=O)O)C(=O)N[C@@H](CCC(=O)O)C(N)=O)[C@@H](C)O
Assay: SIRT1 Km for Acetylated Peptide Substrate (mass spectrometry)
Type: biochemical, human
Details: pH 8.0, 25.0 °C
Protocol: Briefly, 1 μL of vehicle (DMSO) was added to each well of a Costar 96-well clear round bottom assay plate and 10 μL of 10% formic acid was added to all of the wells in row A. The Acetylated Peptide Substrate was serially diluted. Wells A2, A3, A4, A5, A6, A7, A8, A9, A10, A11 and A12 of a Costar 2 mL 96 well Assay Block were filled with 600 μL of Substrate Dilution Working Solution (SDWS; 4 mM NAD^+, 50 mM Tris HCl pH 8.0, 137 mM NaCl, 2.7 mM KCl, 1 mM MgCl2, 5 mM DTT, and 0.05% BSA). […] The APSTD-WS was serially diluted into SDWS by transferring 600 μL of APSTD-WS from well A1 to […] of the Costar 2 mL 96 well Assay Block. The solution was mixed 5 times and the process was continued by moving across row A, until well A12 was reached.
The Enzyme Working Solution (20 nM SIRT1, 50 mM Tris HCl pH 8.0, 137 mM NaCl, 2.7 mM KCl, 1 mM MgCl2, 5 mM DTT, 0.05% BSA) was prepared. […]
At 0, 3, 6, 9, 12, 15, 20, and 25 minutes, the reaction was stopped with 10% formic acid and the conversion of substrate to product was determined by mass spectrometry.
SIRT1 enzyme activity at 12 concentrations of SIRT1 Acetylated Peptide Substrate was monitored by comparing the percent conversion of Acetylated Peptide Substrate to Deacetylated Peptide Product over time. The reaction rate at each substrate concentration was determined as the slope of the product formation versus time plot in the linear range. […]

B1: SIRT1 (Homo sapiens) (protein)
chain: MADEAALALQPGGSPSAAGADREAASSPAGEPLRKRPRRDGPGLERSPGEPGGAAPEREVPAAARGCPGAAAAALWREAEAEAAAAGGEQEAQATAAAGEGDNGPGLQGPSREPPLADNLYDEDDDDEGEEEEEAAAAAIGYRDNLLFGDEIITNGFHSCESDEEDRASHASSSDWTPRPRIGPYTFVQQHLMIGTDPRTILKDLLPETIPPPELDDMTLWQIVINILSEPPKRKKRKDINTIEDAVKLLQECKKIIVLTGAGVSVSCGIPDFRSRDGIYARLAVDFPDLPDPQAMFDIEYFRKDPRPFFKFAKEIYPGQFQPSLCHKFIALSDKEGKLLRNYTQNIDTLEQVAGIQRIIQCHGSFATASCLICKYKVDCEAVRGDIFNQVVPRCPRCPADEPLAIMKPEIVFFGENLPEQFHRAMKYDKDEVDLLIVIGSSLKVRPVALIPSSIPHEVPQILINREPLPHLHFDVELLGDCDVIINELCHRLGGEYAKLCCNPVKLSEITEKPPRTQKELAYLSELPPTPLHVSEDSSSPERTSPPDSSVIVTLLDQAAKSNDDLDVSESKGCMEEKPQEVQTSRNVESIAEQMENPDLKNVGSSTGEKNERTSVAGTVRKCWPNRVAKEQISRRLDGNQYLFLPPNRYIFHGAEVYSDSEDDVLSSSSCGSNSDSGTCQSPSLEEPMEDESEIEEFYNGLEDEPDVPERAGGAGFGTDGDDQEAINEAISVKQEVTDMNYPSNKS
notes: The SirT1 gene was cloned into a T7-promoter containing vector and transformed into BL21(DE3); His-tag (N); made in house; host or cells: E. coli BL21(DE3)
For B1, the Km (other: Sirt1, Mass Spectrometry, present invention) was 11.6 µM and the Km (other: single replicate plates, 2 mM NAD+, 1% DMSO) was 11.2 µM and 11.9 µM.

From patent publication US8304206B2, “Mass spectrometry assays for identifying compounds that activate deacetylases” (Sirtris Pharmaceuticals, Inc., priority 2005, dated 2012)
